Assay [1] concerns the target T1, PrP^Sc, pathogenic form of the human prion protein (from CJD brain homogenate) (human), P04156.
Assay [2] has as its target T1, PrP^Sc, pathogenic form of the human …. The source holds these as a separate data set.
The target is the same in assay [3]. This is another data set of the same source.
The target is the same in assay [4]. This is another data set of the same source.

Like-named read-outs stand apart in the source and are kept apart here.

One molecule from US20120027677A1 can be followed below.

Consider GGGKKRPKPGG (modifications not checked) [peptide of SEQ ID NO: 68], for which the values for the Exp. Mean (ELISA signal) in assay [1] and in assay [3] were 418 RLU and 853 RLU, respectively. Also, the Exp. Mean (as % of 68) in assay [1] and in assay [3] was 100% in each case. Also, the figures for the Mean (ELISA signal) in assay [2] and in assay [4] were 138 RLU and 85 RLU, respectively. For the same molecule, the Mean (% of 68) in assay [4] was found to be 100%.
